Assay results reported in paper PMC6549176, “SAGA DUBm-mediated surveillance regulates prompt export of stress-inducible transcripts for proteostasis” (Nature Communications, 2019).

Target: T1, recombinant Sgf73p (MBP-Sgf73p) (S. cerevisiae, UniProt P53165 1-657)
T1 construct: Sgf73p of the SAGA DUBm, S. cerevisiae; source: recombinant
T1 sequence (looked up): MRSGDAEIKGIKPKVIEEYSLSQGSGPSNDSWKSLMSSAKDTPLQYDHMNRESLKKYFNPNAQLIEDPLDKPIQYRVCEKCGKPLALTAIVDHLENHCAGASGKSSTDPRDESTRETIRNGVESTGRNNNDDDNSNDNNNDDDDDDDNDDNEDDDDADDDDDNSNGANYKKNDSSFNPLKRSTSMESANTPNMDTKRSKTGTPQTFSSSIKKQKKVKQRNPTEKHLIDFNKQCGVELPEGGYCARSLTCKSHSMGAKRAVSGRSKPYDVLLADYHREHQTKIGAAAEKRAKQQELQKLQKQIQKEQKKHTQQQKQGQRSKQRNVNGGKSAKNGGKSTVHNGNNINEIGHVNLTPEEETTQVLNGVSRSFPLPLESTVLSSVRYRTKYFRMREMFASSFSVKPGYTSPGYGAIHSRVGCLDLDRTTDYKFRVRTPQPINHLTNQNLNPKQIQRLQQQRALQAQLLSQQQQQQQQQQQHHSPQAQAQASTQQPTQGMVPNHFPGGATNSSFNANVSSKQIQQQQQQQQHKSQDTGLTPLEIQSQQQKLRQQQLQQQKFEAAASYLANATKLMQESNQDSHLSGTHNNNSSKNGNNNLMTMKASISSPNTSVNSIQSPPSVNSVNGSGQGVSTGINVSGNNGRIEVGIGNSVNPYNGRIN
Assay: pull-down; GST-tagged Yra1p or its subfragments as bait (1 µg) on beads, 200 ng target protein; 50 mM HEPES-KOH pH 7.5, 150 mM NaCl, 10% glycerol, 0.1% NP40, 0.5 mM DTT, 1 mM EDTA; 4 °C, 2 h; Western blotting
Conditions: both partners purified

B1: GST-tagged Yra1p (natural protein, S. cerevisiae, UniProt Q12159 1-226, looked up)
chain: MSANLDKSLDEIIGSNKAGSNRARVGGTRGNGPRRVGKQVGSQRRSLPNRRGPIRKNTRAPPNAVARVAKLLDTTREVKVNVEGLPRDIKQDAVREFFASQVGGVQRVLLSYNERGQSTGMANITFKNGELARRAVERFNGSPIDGGRSRLRLNLIVDPNQRPVKSLADRIKAMPQKGGNAPRPVKRGPNRKAAMAKSQNKPKREKPAKKSLEDLDKEMADYFEKK
notes: Yra1p, essential mRNA export factor, S. cerevisiae; also called GST-Yra1p
binding result: binds
